# Entries after “also recorded” stand apart in the source; their conditions may differ.
# What was measured:
# Trans-sialidase assay = assay type: biochemical
# Procedure: The trans-sialidase assay was performed as described (Scudder, P. et al., J. Biol. Chem., 268:9886-9891 (1993)) with slight modifications. Various amounts of intact enzyme or enzyme fragments were added to 50 mM PBS, Ph 7.2, containing 15% fetal calf serum and […] of [^14C]N-acetyllactosamine (4×10^5 dpm), 50 μg BSA and 0.02% NaN3 in a volume of 60 μl. After incubation for a predetermined amount of time at room temperature, the reaction mixture was diluted to 1.0 ml with distilled water and applied to a column containing 1.0 ml Q-Sepharose equilibrated with water. Sialylated product was eluted with 1 M NaCl and quantified by scintillation counting.
# TS enzymatic activity was measured by the sialylation of the acceptor ^14C-labeled N-acetyllactosamine on anion exchange resins (Scudder, P. et al., J. Biol. Chem. 268:9886-9891 (1993)). Recombinant TSA-1, was expressed on insect sf9 cells and purified from serum-free medium by ion exchange chromatography (monoQ) and preparative SDS-PAGE (Wrightsman, R. A. et al., J. Immunol., 153:3148-3154 (1994).
# neuroblastoma N18 cells = test: Neurite outgrowth assay in N18 cells; assay type: cell-based; settings: soluble or immobilized on plastic (500 μg/ml coating), 17 hours
# Procedure: 96-well microtiter plates were coated overnight at 4° C. with the TS or peptides or fragments thereof, or with control proteins laminin (Ln) or bovine serum albumin (BSA) at 500 μg/ml. After removing the compounds, the plates were further incubated with 1% BSA for 1 hour at room temperature and immediately used as substratum for PC12 or N18 (Prasad, K., Biol. Rev. Camb. Philos. Soc., 66:431-451 (1991)) cells in serum-free RPMI/0.2% BSA. Neurite outgrowth was measured using a phase-contrast microscope 17 hours later.
# Akt kinase [1] = test: Immunodetection and kinase assay of activated Akt in Schwann cells
# PC12 cells = test: Protection of PC12 cells from apoptosis induced by trophic factor withdrawal (DAPI, TUNEL); assay type: cell-based; settings: serum-free RPMI-1640/0.2% BSA, 17 hours, DAPI or TUNEL
# Description: PC12 cells were obtained from ATCC (Manassas, Va. (Accession No. CRL-1721)) and cultured on collagen-coated dishes in RPMI 1640 supplemented with 10% horse serum and 5% fetal bovine serum (Greene, L., and Tishler, A., Proc. Natl. Acad. Sci. USA, 73:2424-2428 (1976)). For differentiation and survival experiments, cells were washed three times in serum-free RPMI/0.2% BSA, plated in the same medium in collagen-coated plastic dishes at 2×10^5/ml, without and with growth factors, TS, recombinant proteins, synthetic peptides, for the time and concentrations indicated in the Figures.
# Cell staining with 4,6-diamino-2-phenylindole (DAPI). Cells were fixed with 4% formaldehyde in PBS for 5 minutes, washed with PBS, stained with 10 μg/ml DAPI (Sigma) for 2 minutes, washed with PBS, and visualized under UV light using a fluorescent microscope. About 300-400 cells were examined under the microscope to determine the percentage of apoptotic cells.
# Cell DNA nick end labeling (TUNEL) (Gavrieli, Y. et al., J. Cell. Biol., 119:493-501 (1992)) assay was performed using a kit purchased from Boehringer Mannheim as described by the manufacturer.
# Protection against apoptosis of PC12 cells in serum-free medium containing a test agent (agent N) (e.g., protection induced by TS, TS fragments, NGF or other growth factors), was calculated by the formula: 100%−[(apoptosis(%) of cells kept in RPMI containing test agent N÷apoptosis (%) of cells kept in RPMI)×100%]. Testing the effect of Wortmannin (Sigma) and LY294002 (Sigma) in inhibiting the neuroprotection of TS was performed following the protocol described by others (Yao, R., and Cooper, G., Science, 267:2003-2006 (1995); D'Mello, et al., J. Neurosci., 17:1548-1560 (1997)). In brief, PC12 cells were switched from growth medium to RPMI without and with TS or various other growth factors. After 24 hours, Wortmannin and LY294002 were added to the cultures. After another 24 hours, cells were examined for apoptosis by the DAPI assay, as above.
# IL-6 = IL-6 secretion by T-24 carcinoma cells (ELISA); assay type: cell-based, human; settings: 24 hours
# Procedure: Primary cultures of human intestinal microvascular endothelial cells (HIMEC) isolated from normal jejunal mucosa/submucosal tissue were prepared as described (Strong et al., Gastroenterology 114:1244-1256 (1998)). The HIMEC were cultured in fibronectin-coated plasticware in MCDB medium (Sigma) supplemented with 20% FBS, 90 μg/ml heparin and 50 μg/ml endothelial cell growth factor (Sigma). T-24 cells (ATCC Accession No. HTB-4) were cultured in M199 medium supplemented with 10% FBS. PBMC were purified by Ficoll-Paque gradient as described (Current Protocols in Immunology, pp 7.1.1-7.1.2). Vero cells (ATCC Accession No. CCL-81) were grown in RPMI medium with 5% Nu serum and infected with the Silvio X-10/4 of T. cruzi as described previously (Chuenkova et al., J. Exp. Med. 181:1693-1703 (1995)).
# Endothelial cells and T-24 cells were plated on 24-well plates at a density of 1×10^3 cells/well, while peripheral blood mononuclear cells (PBMC) were plated in the similar wells at 1×10^6/well. Triplicat cultures of cells were incubated test agents for a predetermined amount of time. […] Cytokines and chemokines released in the culture supernatants were measured by ELISA assay following the instructions of the manufacturer (Endogen). The cytokines tested were IL-1β, IL-4, IL-8, […], IL-12, IFN-γ, TNF-α, and the chemokines RANTES and MCP-1. Negative controls were cells incubated in medium containing polymixin B at 10 μg/ml, and positive controls were cells incubated with bacterial LPS at the low ng/ml range (for PBMC or HIMEC) or in the μg/ml range for carcinoma T-24 cells. In some experiments, IL-1β or TNFα were used as positive control for cytokine release.
# Akt kinase [2] = test: Immunodetection of activated Akt in PC12 cells; assay type: cell-based; settings: Western blot, phospho-Akt (Ser 473) antibody; 100 ng/ml
# Procedure: PC12 cells were deprived of serum for 24-48 hours, stimulated with TS, TS-F or LTR for 2, 5 or 10 minutes and immediately lysed with 2% SDS. In studies using the PI-3 kinase inhibitor, LY294002 (LY), cells were pre-treated with the inhibitor (1 μM) for 30 min prior to the addition of TS-F or TS. The proteins in the cell lysate were separated in SDS-10% polyacrylamide gels, transferred to nitrocellulose membrane (Bio-Rad) and the phosphorylated form of protein kinase Akt was detected with phospho-Akt (Ser 473) antibody (New England BioLabs, Beverly, Mass.), followed by alkaline phosphatase-conjugated secondary antibody (Promega, Madison, Wis.). Bands corresponding to phospho-Akt (60 kDa) were quantified using a scanning densitometer (Bio-Rad).
# human Schwann cells = test: Serum withdrawal-induced apoptosis of Schwann cells (DAPI); assay type: cell-based
molecule,measurement,setting,value
"TS-F: recombinant full catalytic domain of TS, amino acid residues 33-666 (protein, listed as Trypanosoma cruzi) ETQIAIKNSRVSSVSRVVDPTVIVKGNKLYVLVGSYYSSRSYWSSHGDARDWDILLAVGEVTKSTAGGKITASIKWGSPVSLKKFFPAEMEGMHTNQFLGGAGVAIVASNGNLVYPVQVTNKRKQVFSKIFYSEDDGKTWKFGKGRSDFGCSEPVALEWEGKLIINTRVDWKRRLVYESSDMEKPWVEAVGTVSRVWGPSPKSNQPGSQTSFTAVTIEGMRVMLFTHPLNFKGRCVRDRLNLWLTDNQRIYNVGQVSIGDENSAYSSVLYKDDKLYCLHEINTDEVYSLVFARLVGELRIIKSVLRSWKNWTATCPAFAPLLIQPLRRQRVVVVPLSPRLVLLAFCRQRLPKRMGGSYRCVNASTANAERVRNGLKFAGVGGGALWPVSQQGQNQRYRFANHAFTLVASVTIHEAPRAASPLLGASLDSSGGKKLLGLSYDEKHQWQPIYGSTPVTPTGSWETGKRYHLVLTMANKIGSVYIDGELLEGSGQTVVPDGRTPDISHFYVGGYKRSDMPTISHVTVNNVLLYNRRQLNTEEIRTLFLSQDLIGTEAHMDSSSDSSAHSTPSTPADSSAHSTPSTPVDSSAHSTPSTPADSSAHGTPSTPVDSSAHGTPSTPADSSAHGTPSTPVDS",trans-sialidase (enzymatic) activity,Trans-sialidase assay,enzymatically active
same,neurite outgrowth in N18 cells,neuroblastoma N18 cells,induced neurite outgrowth to about the same extent as the intact enzyme
same,Akt phosphorylation in Schwann cells transfected with dominant negative PTEN mutant,Akt kinase [1]; CD 500 ng/ml,did not detectably enhance Akt phosphorylation
same,Akt phosphorylation in Schwann cells transfected with empty vector (neo),Akt kinase [1]; CD 500 ng/ml,boosted levels of phospho-Akt
same,time within which CD activated Schwann cell Akt kinase,Akt kinase [1]; CD 500 ng/ml,1 to 5 min
same,transience of Akt activation in Schwann cells,Akt kinase [1]; CD 500 ng/ml,phospho-Akt not detected after 15 min
same,Akt kinase activity in control GFP-transfected Schwann cells,"Akt kinase [1]; CD 500 ng/ml, 2 minutes, GSK-3α substrate",stimulation of Akt activity
same,Akt kinase activity in Schwann cells over expressing AktKI,"Akt kinase [1]; CD 500 ng/ml, 2 minutes, GSK-3α substrate, listed as CD",inability of CD to enhance endogenous Akt enzymatic activity; also recorded: did not activate Akt kinase
same,Akt phosphorylation in Schwann cells over expressing PTEN,"Akt kinase [1]; CD 500 ng/ml, listed as CD",did not result in the generation of phospho-Akt; also recorded: did not induce phosphorylation of Akt kinase
same,phosphorylation (activation) of Akt kinase in Schwann cells,"Akt kinase [1]; Western blot P-Akt (Ser473), listed as CD",induced transient phosphorylation of Akt kinase
same,protection of PC12 cells from apoptosis induced by trophic factor withdrawal,PC12 cells,PC12 cell survival being induced by TS-F
same,IL-6 secretion by T-24 cells,IL-6,did not promote IL-6 release from T-24 cells
same,phosphorylation (activation) of Akt kinase in PC12 cells,Akt kinase [2],effective in activating Akt
same,survival of Schwann cells transfected with dominant negative PTEN mutant (pG129R),human Schwann cells; CD 500 ng/ml,did not detectably enhance Akt phosphorylation and survival
same,survival of control Schwann cells transfected with GFP vector,"human Schwann cells; CD 500 ng/ml, serum-free, 48 hours",did increase survival of the cells
same,survival of Schwann cells over expressing kinase-inactive Akt (AktKI),"human Schwann cells; CD 500 ng/ml, serum-free, 48 hours, listed as CD",did not increase survival of the cells; also recorded: did not promote survival
same,fragmented nuclei in Schwann cells transfected with empty vector (neo),"human Schwann cells; CD 500 ng/ml, serum-starved",decreased the number of fragmented nuclei by about ten-fold
same,rescue from apoptosis of Schwann cells over expressing PTEN,"human Schwann cells; CD 500 ng/ml, listed as CD",did not rescue cells from apoptotic death; also recorded: did not rescue Schwann cells that over expressed PTEN from apoptosis
same,inhibition of serum withdrawal-induced apoptosis of Schwann cells,"human Schwann cells; serum-free DMEM, 24-72 hours, listed as CD",protected Schwann cells against apoptosis; also recorded: nearly as effective in protecting Schwann cells from apoptosis as 2% serum; also recorded: protected human Schwann cells from apoptosis; also recorded: nearly as effective as 2% serum at inhibiting apoptosis; also recorded: dose-dependent inhibition of serum withdrawal-induced apoptosis

# — US20090117593A1, “T. Cruzi-derived neurotrophic agents and methods of use therefor” (Tufts University, priority 2006, published 2009)
